Measurements as given in FireProtDB (doi:10.1002/prot.340230110).

Conditions: Escherichia coli; pH 6; 25 °C; Thermal; DSC; Sodium phosphate/Sodium sulfate 10 mM/10 mM/; reversible: yes; whole UniProt chain shown

B1: Regulatory protein rop wild type, P03051 (protein)
chain: MTKQEKTALNMARFIRSQTLTLLEKLNELDADEQADICESLHDHADELYRSCLARFGDDGENL
  heat capacity change of unfolding: 2.46 kcal/mol/K
  unfolding free energy: 17.1 kcal/mol
